According to patent publication US20220380734A1, “SYSTEMS AND METHODS FOR LUNG CELL EXPANSION AND DIFFERENTIATION” (DUKE UNIVERSITY, priority 2019, published 2022):

Legend:
[1] = tested on: human alveolospheres; assay: Human alveolosphere culture with human IL-1β; assay type: cell-based; conditions: three donors, hIL-1β removed at day 7, cultured additional 7-15 days
Experimental: For human alveolosphere culture, HTII-280^+ human AT2s (1-3×10^3) were resuspended in scrum free medium and mixed with an equal amount of Matrigel and plated in 6 well plates. For detailed mouse and human serum-free, feeder-free (SFFF) media composition, see Table 1 and Table 2.
The impact of human IL-1β was also tested in human alveolosphere culture. Human IL-1β was removed from medium containing human alveolospheres from three individual donors at day 7 and cultured for an additional 7-15 days (FIG. 7A).

[2] = tested on: AEC2s; assay: AEC2/AEC1 marker immunostaining of mouse organoids (maintenance and differentiation)
Experimental: Serum free medium contained 10 μM SB431542 (Abcam, Cambridge, UK), 3 μM CHIR99021 (Tocris, Bristol, UK), 1 μM BIRB796 (Tocris, Bristol, UK), 5 μg/ml Heparin (Sigma-Aldrich, St. Louis, Mo.), 50 ng/ml human EGF (Gibco), 10 ng/ml mouse FGF10 (R&D systems. Minneapolis, Minn.), 10 μM Y27632 (Selleckchem, Houston, Tex.), Insulin-Transferrin-Selenium (Thermo, Waltham, Mass.), 1% Glutamax (Thermo, Waltham, Mass.), 2% B27 (Thermo, Waltham, Mass.), 1% N2 (Thermo, Waltham, Mass.), 15 mM HEPES (Thermo, Waltham, Mass.), 1.25 mM N-acetylcysteine (Sigma-Aldrich, St. Louis, Mo.) and 1% Anti-Anti (Thermo, Waltham, Mass.) in Advanced DMEM/F12 (Thermo, Waltham, Mass.). For Alveo-Expansion medium, 10 ng/ml mouse IL-1b (BioLegend, San Diego, Calif.), 10 ng/ml mouse TNFa (BioLegend, San Diego, Calif.) were added into serum free medium. For Alveo-Maintenance medium, 10 ng/ml mouse Noggin (Peprotech, Rocky Hill, N.J.) and 1 μM DMH-1 (Tocris, Bristol, UK.) were added into Alveo-Expansion medium. Alveo-Differentiation medium contained ITS, Glutamax, 5 μg/ml Heparin, 5 ng/ml human EGF, 1 μg/ml mouse FGF10, 10% fetal bovine serum and 1% Anti-Anti in Advanced DMEM/F12.
For differentiation, mouse alveolospheres were cultured in AMM medium for 10 days were switched to AT2-differentiation medium followed by culture for an additional 7 days, except where stated otherwise. […]

[3] = tested on: AEC2s; assay: Feeder-free (no fibroblasts) mouse AEC2 organoid culture in serum free medium: CFE and organoid size; assay type: cell-based

**Q.** For “Human IL-1β: human interleukin-1β tested in human alveolosphere culture”, which “organoid numbers and the size (growth rate)” value [1] is on record?
**A.** Its value is “significantly enhanced”.

**Q.** Which “expression of AEC1 markers including AGER” value ([2]; mouse AEC2s, 10 days maintenance medium, then serum-free differentiation medium + IL6 20 ng/mL for 10 days) does the source give for “IL6: interleukin-6, 20 ng/mL supplement of serum-free differentiation medium” here?
**A.** Its value is “strong expression”.

B1: IL1β: mouse interleukin-1β, cytokine added to serum free medium (protein, UniProt P10749 118-269, looked up)
Interleukin-1 beta: VPIRQLHYRLRDEQQKSLVLSDPYELKALHLNGQNINQQVIFSMSFVQGEPSNDKIPVALGLKGKNLYLSCVMKDGTPTLQLESVDPKQYPKKKMEKRFVFNKIEVKSKVEFESAEFPNWYISTSQAEHKPVFLGNNSGQDIIDFTMESVSS
**Q.** How did the CFE ([3]; IL1β removed from culture media on day-3, n=2) turn out when B1 was run?
**A.** The CFE was 19.85%.

**Q.** And the CFE ([3]; IL1β removed from culture media on day-5, n=3, average±SEM)?
**A.** The CFE was 20.35%±0.30%.

**Q.** And the CFE ([3]; IL1β removed from culture media on day-7, n=3, average±SEM)?
**A.** Its CFE is 19.33%±0.84%.

**Q.** And the CFE ([3]; continuous IL1β supplementation, n=3, average±SEM)?
**A.** The CFE was 20.91%±1.61%.

B2: BMP4: BMP4 ligand (protein, UniProt P12644 293-408, looked up)
Bone morphogenetic protein 4: SPKHHSQRARKKNKNCRRHSLYVDFSDVGWNDWIVAPPGYQAFYCHGDCPFPLADHLNSTNHAIVQTLVNSVNSSIPKACCVPTELSAISMLYLDEYDKVVLKNYQEMVVEGCGCR
**Q.** With B2 as the molecule, how does the “complete differentiation of AEC2 to AEC1 cells” value ([2]; organoids treated with BMP4 ligand) read?
**A.** Its value is “not observed”.
